Source: patent US20100316641A1 (US Dept. of Health and Human Services, published 2010)

Molecular target: T1, Bal gp120-CD4 (HIV-1 (Bal isolate))
T1 construct: domain: gp120;domain: two-domain CD4; also called gp120Bal-CD4; panning antigen; not shown: junction or linker between gp120 and CD4 is not described
Experiment: ELISA, antigen coated, purified refolded nAb, anti-His-HRP

Binder	EC50 [nM]
m1a1 (designed binder, also called CH2 clone m1a1; nAb m1a1; not shown: C-terminal His tag used for detection) APELLGGPSVFLFPPKPKDTLMISRTPEVTCVVVDYDYDSYFDFGKFNWYVDGVEVHNAKTKPREEQYNSTYRVVSVLTVLHQDWLNGKEYKCKVSNSDSAASGPIEKTISKAK	500
m1a2 (designed binder, also called CH2 clone m1a2; nAb m1a2; not shown: C-terminal His tag used for detection) APELLGGPSVFLFPPKPKDTLMISRTPEVTCVVVDYDYDSYYDGKFNWYVDGVEVHNAKTKPREEQYNSTYRVVSVLTVLHQDWLNGKEYKCKVSNDDYAADGPIEKTISKAK	500
